Experimental data as given in paper PMC8924275, “A peroxisomal heterodimeric enzyme is involved in benzaldehyde synthesis in plants” (Nature Communications, 2022).
Blank lines part the entries; values can stand above or below the molecule they belong to.

How the values were obtained:
[1] = target: purified recombinant tomato (Solanum lycopersicum) benzaldehyde synthase α subunit (SlBSα) (Solanum lycopersicum (tomato))
[2] = target: purified recombinant Arabidopsis thaliana benzaldehyde synthase α subunit (AtBSα) (Arabidopsis thaliana)
[3] = target: purified recombinant Arabidopsis thaliana benzaldehyde synthase β subunit (AtBSβ) (Arabidopsis thaliana); assay: SEC; purified recombinant proteins at ~1 mg/mL on Superdex 200 Increase 10/300 GL in phosphate-buffered saline
AtBS = target: T1, AtBS (Arabidopsis thaliana, UniProt F4JFB8+Q9SG99); assay: HPLC-DAD detection of benzaldehyde, Michaelis-Menten fit; type: biochemical; conditions: 4 mM NADPH; 50 mM Bis-Tris pH 6.5; 28 °C; α:β 1:1
T1 construct: gene SDRD; CDS of both subunits from flower cDNA in pMAL-c5X (MBP-tagged), E. coli; amylose resin after 1:1 mixing; heterodimer
T1 sequence (F4JFB8 1-280): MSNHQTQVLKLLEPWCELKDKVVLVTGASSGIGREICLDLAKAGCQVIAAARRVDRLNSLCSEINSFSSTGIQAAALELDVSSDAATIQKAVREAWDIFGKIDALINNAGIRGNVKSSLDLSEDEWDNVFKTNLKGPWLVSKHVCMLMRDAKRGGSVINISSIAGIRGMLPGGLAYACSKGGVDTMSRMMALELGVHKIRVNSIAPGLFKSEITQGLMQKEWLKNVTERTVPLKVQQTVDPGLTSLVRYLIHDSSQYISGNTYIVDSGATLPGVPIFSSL
T1 sequence (Q9SG99 1-266): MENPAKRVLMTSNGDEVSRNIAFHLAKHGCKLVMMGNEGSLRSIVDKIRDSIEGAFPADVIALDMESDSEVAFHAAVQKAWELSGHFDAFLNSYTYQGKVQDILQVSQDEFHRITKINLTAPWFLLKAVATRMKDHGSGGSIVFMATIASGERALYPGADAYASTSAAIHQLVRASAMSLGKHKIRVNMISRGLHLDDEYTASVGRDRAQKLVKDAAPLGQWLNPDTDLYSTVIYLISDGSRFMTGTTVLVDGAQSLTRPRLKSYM
Source text: HPLC-DAD detection of benzaldehyde, Michaelis-Menten fit on AtBS

[4] = tested on: CC(C)(COP(=O)(O)OP(=O)(O)OC[C@H]1O[C@@H](n2cnc3c(N)ncnc32)[C@H](O)[C@@H]1OP(=O)(O)O)[C@@H](O)C(=O)NCCC(=O)NCCSC(=O)c1ccccc1; assay: purified protein; conditions: 4 mM NADPH, 50 mM Bis-Tris pH 6.5, 28 °C, α:β 1:1
Source text: HPLC-DAD detection of benzaldehyde, Michaelis-Menten fit on PdBS

[5] = target: purified recombinant PhBSβ (from pMAL-c5X, MBP tag) (Petunia hybrida); assay: SEC; purified recombinant proteins at ~1 mg/mL on Superdex 200 Increase 10/300 GL in phosphate-buffered saline

apparent BS activity of the cross-species hybrid SlBSα-PdBSβ compared with SlBS (fold higher than SlBS) [1]: 2.7
apparent BS activity of the cross-species hybrid AtBSα-PdBSβ relative to AtBS (fold higher than AtBS) [2]: 7.8
Molecule: purified recombinant almond (Prunus dulcis) benzaldehyde synthase β subunit (PdBSβ) (natural protein)

apparent BS activity of the cross-species hybrid AtBSα-SlBSβ relative to AtBS (fold higher than AtBS) [2]: 4.6
Molecule: purified recombinant tomato (Solanum lycopersicum) benzaldehyde synthase β subunit (SlBSβ) (natural protein)

Km (AtBS): 243 ± 28.2 µM
Molecule: CC(C)(COP(=O)(O)OP(=O)(O)OC[C@H]1O[C@@H](n2cnc3c(N)ncnc32)[C@H](O)[C@@H]1OP(=O)(O)O)[C@@H](O)C(=O)NCCC(=O)NCCSC(=O)c1ccccc1 [benzoyl-CoA]

The next lines start with the molecule.

Molecule: purified recombinant Arabidopsis thaliana benzaldehyde synthase β subunit (AtBSβ) (natural protein)
stoichiometry N [3]: 4

Molecule: PdBS (Prunus dulcis)
Km [4]: 629.4 ± 67.7 µM
Vmax [4]: 2.12 µmol/min/mg
kcat [4]: 5.26 ± 0.2 s⁻¹
kcat/Km [4]: 8400 ± 1000 M⁻¹ s⁻¹

Molecule: purified recombinant PhBSβ (from pMAL-c5X, MBP tag) (natural protein)
apparent BS activity of the cross-species hybrid SlBSα-PhBSβ compared with SlBS (fold lower than SlBS) [1]: 6.5
stoichiometry N [5]: 4
